The results in this text go back to patent CN104610448A (WOMEN S HOSPITAL SCHOOL OF MEDICINE ZHEJIANG UNIVERSITY, dated 2015).

Test [1] has as its target T1, HPV16E6 (pEGFP-C1-HPV16E6质粒转染293T细胞所提蛋白) (HPV16, UniProt P03126 1-158).
T1 construct: not shown: EGFP tag encoded by the pEGFP-C1 vector (N-terminal to the insert)
The test is described as follows: western blot, 293T lysate, recombinant antibody. (Immunoblotting shows a protein as a band on a membrane.)

In test [2] the target is T2, HPV58E6 (pEGFP-C1-HPV58E6质粒转染293T细胞所提蛋白) (HPV58, UniProt P26555 1-149).
T2 construct: Expressed from pEGFP-C1 in 293T cells, so an EGFP fusion (band at 37-55 KD); assayed as denatured cell lysate in western blot; not shown: EGFP tag encoded by the pEGFP-C1 vector (N-terminal to the insert)
T2 sequence (looked up): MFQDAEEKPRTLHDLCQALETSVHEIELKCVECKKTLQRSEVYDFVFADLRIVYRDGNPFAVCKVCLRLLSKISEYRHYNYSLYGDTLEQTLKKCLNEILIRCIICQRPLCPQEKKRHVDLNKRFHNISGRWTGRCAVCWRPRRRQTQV
The test is described as follows: western blot, 293T lysate, recombinant antibody 1:100.

T1 sequence (P03126 whole entry): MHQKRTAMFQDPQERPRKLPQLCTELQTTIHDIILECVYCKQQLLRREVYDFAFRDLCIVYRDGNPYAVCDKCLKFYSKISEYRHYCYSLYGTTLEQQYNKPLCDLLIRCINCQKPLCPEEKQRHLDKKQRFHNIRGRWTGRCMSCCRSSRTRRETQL

B1: HPV58E6特异性兔单克隆抗体 (ZJM1b-9 H2/L1 重组抗体) (antibody, V domains shown)
VH: QSVEESGGRLVTPGTPLTLTCTVSGFSLSSKTISWVRQAPGKGLEWIGAIDSNGMKAYARWAKGRFTISKSSTTVYLKITSPTTEDTATYFCVKPNNLWGPGTLVTVSS
VL: AQVLTQTPSPVSAAVGGTVTINCQSSQSVYNNNALSWYQQKPGQPPKLLIYSASKVATGVPSRFSGSGSGAQFTLTISDLECDDAATYYCQGEFSCSSADCFAFGGGTEVVVKG
notes: Recombinant rabbit monoclonal antibody made in HEK-293-6E cells from pTT5 plasmids; also called ZJM1b-9中的H2/L1; ZJM-1-9H2/L1
Regarding B1, the binding result is “no binding (tested: 1:100稀释)” in test [1] and “binds” in test [2].
